{"source": "FireProtDB (doi:10.1016/j.jmb.2005.06.006)", "details": "Escherichia coli (strain K12); pH 7.8; 25 °C; Urea; CD; Potassium phosphate 10 mM; transition: 3; whole UniProt chain shown", "note": "Several values for one entry are separate records, joined by “and”; a condition that tells them apart may be missing. Equal values may be shown once.", "data": [{"protein": "Tryptophan synthase alpha chain wild type, P0A877 (protein) MERYESLFAQLKERKEGAFVPFVTLGDPGIEQSLKIIDTLIEAGADALELGIPFSDPLADGPTIQNATLRAFAAGVTPAQCFEMLALIRQKHPTIPIGLLMYANLVFNKGIDEFYAQCEKVGVDSVLVADVPVEESAPFRQAALRHNVAPIFICPPNADDDLLRQIASYGRGYTYLLSRAGVTGAENRAALPLNHLVAKLKEYNAAPPLQGFGISAPDQVKAAIDAGAAGAISGSAIVKIIEQHINEPEKMLAALKVFVQPMKAATRS", "values": [{"measurement": "denaturant m value", "value": "2.29 kcal/mol/M and 1.2 kcal/mol/M"}, {"measurement": "unfolding free energy", "value": "6.13 kcal/mol and 4.72 kcal/mol"}]}]}
